# Residue numbers refer to the chain shown, from its start. Numbers in names are those of the source.
# B1: IL6R-PD086/IL6R-L (antibody, human IgG1)
# heavy: QVQLQESGPGLVKPSETLSLTCAVSGHSISHDHAWSWVRQPPGEGLEWIGFISYSGITNYNPSLQGRVTISRDNSKNTLYLQMNSLRAEDTAVYYCARSLARTTAMDYWGEGTLVTVSSASTKGPSVFPLAPSSKSTSGGTAALGCLVKDYFPEPVTVSWNSGALTSGVHTFPAVLQSSGLYSLSSVVTVPSSSLGTQTYICNVNHKPSNTKVDKKVEPKSCDKTHTCPPCPAPELLGLDSVFLFPPKPKDTLYISRTPEVTCVVVDVSHEDPEVKFNWYVDGVEVHNAKTKPREEQYNSTYRVVSVLTVLHQDWLNGKEYKCKVSNKALPAPIEKTISKAKGQPREPQVYTLPPSRDELTKNQVSLTCLVKGFYPSDIAVEWESNGQPENNYKTTPPVLDSDGSFFLYSKLTVDKSRWQQGNVFSCSVMHEALHYHYTQKSLSLSP
# light: DIQMTQSPSSLSASVGDRVTITCRASQDISSYLNWYQQKPGKAPKLLIYYTSRLHSGVPSRFSGSGSGTDFTFTISSLQPEDIATYYCQQGNTLPYTFGQGTKVEIK
# notes: Alteration introduced into IL6R-F11; also called P238D/G237L; G237L/P238D
# B2: IL6R-PD095/IL6R-L (antibody, human IgG1)
# heavy: B1 heavy with L239Y
# light: B1 light
# notes: Alteration introduced into IL6R-F11; also called P238D/G237Y; G237Y/P238D
# B3: IL6R-PD094/IL6R-L (antibody, human IgG1)
# heavy: B1 heavy with L239W
# light: B1 light
# notes: Alteration introduced into IL6R-F11; also called P238D/G237W; G237W/P238D
# B4: IL6R-PD079/IL6R-L (antibody, human IgG1)
# heavy: B1 heavy with L239A
# light: B1 light
# notes: Alteration introduced into IL6R-F11; also called P238D/G237A; G237A/P238D
# B5: IL6R-PD082/IL6R-L (antibody, human IgG1)
# heavy: B1 heavy with L239F
# light: B1 light
# notes: Alteration introduced into IL6R-F11; also called P238D/G237F; G237F/P238D
# B6: IL6R-PD081/IL6R-L (antibody, human IgG1)
# heavy: B1 heavy with L239E
# light: B1 light
# notes: Alteration introduced into IL6R-F11; also called P238D/G237E; G237E/P238D
# B7: IL6R-PD087/IL6R-L (antibody, human IgG1)
# heavy: B1 heavy with L239M
# light: B1 light
# notes: Alteration introduced into IL6R-F11; also called P238D/G237M; G237M/P238D
# B8: IL6R-PD042/IL6R-L (antibody, human IgG1)
# heavy: B1 heavy with L236W, L239G
# light: B1 light
# notes: Alteration introduced into IL6R-F11; also called P238D/L234W; L234W/P238D
# B9: IL6R-F652/IL6R-L (antibody, human IgG1)
# heavy: B1 heavy with L239G
# light: B1 light
# notes: IL6R-F11 with P238D (EU numbering)
# B10: IL6R-PD043/IL6R-L (antibody, human IgG1)
# heavy: B1 heavy with L236Y, L239G
# light: B1 light
# notes: Alteration introduced into IL6R-F11; also called P238D/L234Y; L234Y/P238D
# B11: antibody with VH3-IgG1-F938 heavy chain and L(WT)-CK light chain (antibody)
# heavy: B1 heavy with L237K, L239G, D240P, S241K, Y438V
# light: not shown
# notes: L235K/S239K on VH3-IgG1-F890; copies: 2 + 2
# B12: antibody with VH3-IgG1-F1325 heavy chain and L(WT)-CK light chain (antibody)
# heavy: B1 heavy with L236A, L237A, L239G, D240P, N299A, Y438V
# light: not shown
# notes: L234A/L235A/N297A on VH3-IgG1-F890; copies: 2 + 2
# B13: antibody with VH3-IgG1-F1315 heavy chain and L(WT)-CK light chain (antibody)
# heavy: B1 heavy with L239K, D240P, S241K, Y438V
# light: not shown
# notes: G237K/S239K on VH3-IgG1-F890; copies: 2 + 2
# B14: antibody with VH3-IgG1-F1316 heavy chain and L(WT)-CK light chain (antibody)
# heavy: B1 heavy with L239R, D240P, S241K, Y438V
# light: not shown
# notes: G237R/S239K on VH3-IgG1-F890; copies: 2 + 2
# B15: antibody with VH3-IgG1-F1333 heavy chain and L(WT)-CK light chain (antibody)
# heavy: B1 heavy with L237R, G238R, L239G, D240P, S241K, Y438V
# light: not shown
# notes: L235R/G236R/S239K on VH3-IgG1-F890; copies: 2 + 2
# B16: antibody with VH3-IgG1-F1317 heavy chain and L(WT)-CK light chain (antibody)
# heavy: B1 heavy with L239G, D240P, S241K, P331K, Y438V
# light: not shown
# notes: S239K/P329K on VH3-IgG1-F890; copies: 2 + 2
# B17: antibody with VH3-IgG1-F1318 heavy chain and L(WT)-CK light chain (antibody)
# heavy: B1 heavy with L239G, D240P, S241K, P331R, Y438V
# light: not shown
# notes: S239K/P329R on VH3-IgG1-F890; copies: 2 + 2
# B18: antibody with VH3-IgG1-F1356 heavy chain and L(WT)-CK light chain (antibody)
# heavy: B1 heavy with G238R, L239G, D240P, L330R, Y438V
# light: not shown
# notes: G236R/L328R on VH3-IgG1-F890; copies: 2 + 2
# B19: IL6R-PD080/IL6R-L (antibody)
# chain 1: B1 heavy with L239D
# chain 2: not shown
# Biological target: T1, human FcγRIIa type R (human, UniProt P12318 36-217)
# T1 construct: also called FcγRIIaR; FcγRIIa(R)
# T1 chain: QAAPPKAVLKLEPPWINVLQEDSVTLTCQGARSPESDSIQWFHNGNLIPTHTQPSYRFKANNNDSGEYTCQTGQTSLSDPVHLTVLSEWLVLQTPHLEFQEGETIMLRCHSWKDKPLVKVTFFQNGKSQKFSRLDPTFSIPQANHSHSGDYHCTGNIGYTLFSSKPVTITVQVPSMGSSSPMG
# Test: SPR (Biacore), binding amount relative to IL6R-F652/IL6R-L = 100
row,Binder,relative binding activity
1,B1,268
2,B2,543
3,B3,593
4,B4,138
5,B5,380
6,B6,117
7,B7,196
8,B8,240
9,B9,100
10,B10,175

# Biological target: T2, human FcγRIIb (human, UniProt P31994 43-217, limits assumed)
# T2 construct: also called FcγIIB
# T2 sequence: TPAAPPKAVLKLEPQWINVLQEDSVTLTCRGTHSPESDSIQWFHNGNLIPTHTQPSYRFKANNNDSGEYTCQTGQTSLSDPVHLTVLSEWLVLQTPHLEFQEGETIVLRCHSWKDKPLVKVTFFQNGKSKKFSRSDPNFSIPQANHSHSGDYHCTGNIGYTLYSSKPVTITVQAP
# Test: as above
row,Binder,relative binding activity
1,B1,112
2,B2,124
3,B3,122
4,B4,101
5,B5,108
6,B6,101
7,B7,109
8,B8,106
9,B9,100
10,B10,112

# Biological target: T2, human FcγRIIb
# Test: SPR (Biacore); KD for FcγRIIaR divided by KD for FcγRIIb of the same antibody
row,Binder,KD(IIaR)/KD(IIb)
1,B1,6.9
2,B2,3.4
3,B3,3.1
4,B4,10.5
5,B5,4.1
6,B6,10.6
7,B7,7.7
8,B8,8.1
9,B10,15.9

# Biological target: T2, human FcγRIIb
# Test: SPR (Biacore); ratio against parent IL6R-F11/IL6R-L
row,Binder,KD(IIb) of parent polypeptide/KD(IIb) of altered polypeptide
1,B1,2.7
2,B2,2.9
3,B3,2.9
4,B4,2.3
5,B5,2
6,B6,1.9
7,B7,2.4
8,B8,3.4
9,B10,4.2

# Biological target: T3, human FcγRIIa(R) (human, UniProt P12318 36-217)
# T3 construct: also called hFcgRIIa(R); FcγRIIa type R
# T3 chain: T1 chain
# Test: SPR, antibody captured by Protein L, human FcγR as analyte, pH 7.4, 25 C;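 also: biacore T100 or T200 with Protein L amine-coupled on a CM4 chip, FcγRs diluted in ACES saline with polysorbate 20, buffer-only injection as blank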
# Experimental: (§1) Binding activity between the antibodies and human FcγRIa, FcγRIIa(H), FcγRIIa(R), FcγRIIb and FcγRIIIa(F) (hereinafter referred to as human FcγRs) was evaluated using the BIACORE™ T100 or T200 surface plasmon resonance system (GE Healthcare). The antibodies being tested were captured by Protein L (ACTIGEN® protein (Alltech)) that was immobilized in suitable amounts on the CM4 Sensor Chip (GE Healthcare) by amine coupling. Next, the diluted human FcγRs and a running buffer used as a blank were injected to allow interaction with the antibodies captured on the sensor chip. A buffer consisting of 20 mmol/L N-(2-acetamido)-2-aminoethanesulfonic acid (ACES), 150 mmol/L NaCl and 0.05% (w/v) polysorbate 20 (Tween 20®) (pH 7.4) was used for the running buffer, and this buffer was also used to dilute the human FcγRs. 10 mmol/L glycine-HCl (pH 1.5) was used to regenerate the sensor chip. All measurements were carried out at 25° C.
row,Binder,BINDING AMOUNT (RU)
1,B11,-0.12 RU
2,B12,-1.17 RU
3,B13,-1.14 RU
4,B14,-0.33 RU
5,B15,-0.15 RU
6,B16,-1.48 RU
7,B17,-1.59 RU
8,B18,-0.23 RU

# Biological target: T4, human FcγRIa (human, UniProt P12314 16-292, limits assumed)
# T4 construct: also called hFcgRIa; hFcgRI
# Test: as above
# T4 sequence (P12314 16-292 limits assumed): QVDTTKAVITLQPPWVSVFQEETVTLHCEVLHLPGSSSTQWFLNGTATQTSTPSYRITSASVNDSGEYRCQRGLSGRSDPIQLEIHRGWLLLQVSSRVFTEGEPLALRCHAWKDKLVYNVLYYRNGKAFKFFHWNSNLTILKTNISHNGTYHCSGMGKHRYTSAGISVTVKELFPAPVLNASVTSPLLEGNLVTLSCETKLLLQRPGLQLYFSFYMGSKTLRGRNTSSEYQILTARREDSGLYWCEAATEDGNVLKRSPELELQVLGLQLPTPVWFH
# Experimental: as §1
row,Binder,BINDING AMOUNT (RU)
1,B11,-0.49 RU
2,B12,-0.47 RU
3,B13,-2.71 RU
4,B14,-0.12 RU
5,B15,-0.35 RU
6,B16,-1.46 RU
7,B17,-0.31 RU
8,B18,-0.9 RU

# Biological target: T5, human FcγRIIa(H) (human, UniProt P12318 36-217)
# T5 construct: also called hFcgRIIa(H); FcγRIIa type H
# T5 sequence: T1 chain with R133H
# Test: as above
# Experimental: as §1
row,Binder,BINDING AMOUNT (RU)
1,B11,-0.05 RU
2,B12,-0.62 RU
3,B13,-1.37 RU
4,B14,-0.34 RU
5,B15,-0.56 RU
6,B16,-0.76 RU
7,B17,-1.12 RU
8,B18,-0.22 RU

# Biological target: T6, human FcγRIIIa(V) (human, UniProt P08637 17-208, limits assumed)
# T6 construct: also called hFcgRIIIa(V); allotype V158
# T6 sequence (P08637 other isoform, or with tags, fused parts or gaps limits assumed): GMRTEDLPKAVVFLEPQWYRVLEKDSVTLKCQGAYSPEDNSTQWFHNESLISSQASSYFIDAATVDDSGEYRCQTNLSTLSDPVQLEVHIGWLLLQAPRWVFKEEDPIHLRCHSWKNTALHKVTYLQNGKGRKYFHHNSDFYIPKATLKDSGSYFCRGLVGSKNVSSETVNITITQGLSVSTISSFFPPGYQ
# Test: as above
# Experimental: as §1
row,Binder,BINDING AMOUNT (RU)
1,B11,1.2 RU
2,B12,-2.4 RU
3,B13,-2.69 RU
4,B14,-0.42 RU
5,B15,-1.42 RU
6,B16,-2.76 RU
7,B17,-3.63 RU
8,B18,0.09 RU

# Biological target: T7, human FcγRIIb (human, UniProt P31994 43-217, limits assumed)
# T7 construct: also called hFcgRIIb; FcγIIB
# T7 sequence: T2 sequence
# Test: as above
# Experimental: as §1
row,Binder,BINDING AMOUNT (RU)
1,B11,-0.14 RU
2,B12,1.46 RU
3,B13,0.63 RU
4,B14,-0.44 RU
5,B15,-0.2 RU
6,B16,-0.23 RU
7,B17,0.26 RU
8,B18,0.63 RU

# Biological target: T2, human FcγRIIb
# Test: SPR (Biacore); KD for FcγRIIaH divided by KD for FcγRIIb of the same antibody
row,Binder,KD(IIaH)/KD(IIb)
1,B1,7.1
2,B2,6.4
3,B3,5.2
4,B4,7
5,B5,4.7
6,B6,7
7,B7,7
8,B8,9.5
9,B10,14.4

# Biological target: T1, human FcγRIIa type R
# Test: SPR (Biacore), antibody captured, FcγR as analyte
row,Binder,Kd
1,B19,21000 nM
2,B1,18000 nM
3,B2,7900 nM
4,B3,7200 nM
5,B4,32000 nM
6,B5,14000 nM
7,B6,38000 nM
8,B7,22000 nM
9,B8,16000 nM
10,B10,26000 nM

# Biological target: T8, human FcγRIa (human, UniProt P12314 16-292, limits assumed)
# T8 construct: also called CD64
# Test: SPR (Biacore), antibody captured, FcγR as analyte
# T8 sequence (P12314 16-292 limits assumed): as the sequence (P12314 16-292 limits assumed) above
row,Binder,Kd
1,B1,120 nM
2,B2,93 nM
3,B3,36 nM
4,B4,140 nM
5,B5,52 nM
6,B6,340 nM
7,B7,52 nM
8,B8,63 nM
9,B10,75 nM

# Biological target: T2, human FcγRIIb
# Test: SPR (Biacore), antibody captured, FcγR as analyte
row,Binder,Kd
1,B1,2600 nM
2,B2,2300 nM
3,B3,2300 nM
4,B4,3000 nM
5,B5,3400 nM
6,B6,3600 nM
7,B7,2900 nM
8,B8,2000 nM
9,B10,1600 nM

# Source: patent US20200199241A1 (Chugai, published 2020)
